B1: 7mer ssRNA (ssRNA)
RNA: CACUGAC
B2: 7mer dsRNA (dsRNA)
RNA 1: CACUGAC
RNA 2: GUCAGUG

Target: Nucleocapsid protein (N) (SARS-CoV-2, UniProt P0DTC9 1-419)
Test: EMSA; no sdAb; Hill fixed at 5
Details: protein: recombinant, tags: His6 or His6-MBP N-terminal fusion vector, TEV cleavage, chain copies: 2

| Binder | Kd (label: 5'-FAM, single strand) [nM] | Kd (label: 5'-FAM on strand 1, blunt) [nM] |
| --- | --- | --- |
| B1 | 560 ± 60 |  |
| B2 |  | 480 ± 30 |

— paper PMC8351461
